# Assay results: US20190111122A1 (ENGINEERED ANTIGENS, published 2019)
# B1: TbpB N-lobe fused to HpuA (N. meningitidis) (other)
# chain: CLGGGGSFDLDSVETVQDMHSKPKYEDEKSQPESQQDVSENSGAAYGFAVKLPRRNAHFNPKYKEKHKPLGSMDWKKLQRGEPNSFSERDELEKKRGSSELIESKWEDGQSRVVGYTNFTYVRSGYVYLNKNNIDIKNNIVLFGPDGYLYYKGKEPSKELPSEKITYKGTWDYVTDAMEKQRFEGLGSAAGGDKSGALSALEEGVLRNQAEASSGHTDFGMTSEFEVDFSDKTIKGTLYRNNRITQNNSENKQIKTTRYTIQATLHGNRFKGKALAADKGATNGSHPFISDSDSLEGGFYGPKGEELAGKFLSNDNKVAAVFGAKQKDKKDAGGGVAEPHVPVSIPTATPLPTGEVKLSDDNSKIENINTADTGSTSGISIQQRKYEVESYGIKREEKAFIFQTPGGAQYALSSYADPITVSYSSPDFKIPDRHAGQRLADGSRIFICCSESGATSYAEITKQDYMKFGAWIGPNGEIDLFAGGFPVGKTPKPKYSWGNTEPETKGKGKITYQVWGIRVRNRQFVTSSYTPPKSGSYYGTLANTPVLSFITANFNSNKLAGEIRGNSDYGPSVKIENATINSLSFSGTATSGGKTGNLEGKFFGKFNGYRDTETSIGGKITFDGDRSLDTVFGGVSYKKELENNTDTSTTHLTK
# notes: also called Nlobe-HpuA
# Molecular target: T1, biotinylated human transferrin (human, UniProt P02787 20-698, biotinylated (sites not given))
# T1 construct: Used at 0.05-0.1 mg/mL as the labelling reagent; detected with R-phycoerythrin-conjugated streptavidin; also called Sigma-aldrich T3915-5MG
# Experiment: flow cytometry, E. coli C43 (DE3) cells expressing Nlobe_HpuA with SLAM1 or SLAM2, labelled with biotinylated human transferrin
# T1 sequence (P02787 20-698 limits assumed): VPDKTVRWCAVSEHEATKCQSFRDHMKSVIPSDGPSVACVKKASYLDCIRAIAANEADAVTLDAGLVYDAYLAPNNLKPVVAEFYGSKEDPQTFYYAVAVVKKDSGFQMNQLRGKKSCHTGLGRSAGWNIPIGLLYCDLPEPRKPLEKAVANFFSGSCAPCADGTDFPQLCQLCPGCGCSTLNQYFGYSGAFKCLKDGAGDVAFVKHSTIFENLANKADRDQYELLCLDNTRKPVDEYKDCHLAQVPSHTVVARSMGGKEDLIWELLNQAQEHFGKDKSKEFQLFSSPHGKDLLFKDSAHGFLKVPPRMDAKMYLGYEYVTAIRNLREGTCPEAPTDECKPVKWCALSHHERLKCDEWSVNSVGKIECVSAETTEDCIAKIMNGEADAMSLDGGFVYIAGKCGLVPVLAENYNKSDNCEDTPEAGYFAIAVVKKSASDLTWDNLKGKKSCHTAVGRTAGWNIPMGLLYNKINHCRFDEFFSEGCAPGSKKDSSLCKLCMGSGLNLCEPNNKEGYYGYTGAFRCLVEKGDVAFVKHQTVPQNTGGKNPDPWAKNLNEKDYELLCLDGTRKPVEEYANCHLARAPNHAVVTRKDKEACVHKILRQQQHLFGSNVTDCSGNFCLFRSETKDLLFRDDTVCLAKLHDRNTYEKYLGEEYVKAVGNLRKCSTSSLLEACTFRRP
binder,measurement,value
B1,binding result,binds
